Like-named read-outs stand apart in the source and are kept apart here.
How the values were obtained:
[1] = target: PA-BODIPY conjugate (Bacillus anthracis protective antigen conjugated to BODIPY FL) (Bacillus anthracis) (UniProt P13423)
[2] = target: PA-BODIPY conjugate (Bacillus anthracis protective antigen conjugated to BODIPY FL) (Bacillus anthracis) (UniProt P13423); remark: listed apart in the source

PA-BODIPY conjugate (Bacillus anthracis protective antigen conjugated to BODIPY FL) (Bacillus anthracis), sequence (P13423 30-764 limits assumed): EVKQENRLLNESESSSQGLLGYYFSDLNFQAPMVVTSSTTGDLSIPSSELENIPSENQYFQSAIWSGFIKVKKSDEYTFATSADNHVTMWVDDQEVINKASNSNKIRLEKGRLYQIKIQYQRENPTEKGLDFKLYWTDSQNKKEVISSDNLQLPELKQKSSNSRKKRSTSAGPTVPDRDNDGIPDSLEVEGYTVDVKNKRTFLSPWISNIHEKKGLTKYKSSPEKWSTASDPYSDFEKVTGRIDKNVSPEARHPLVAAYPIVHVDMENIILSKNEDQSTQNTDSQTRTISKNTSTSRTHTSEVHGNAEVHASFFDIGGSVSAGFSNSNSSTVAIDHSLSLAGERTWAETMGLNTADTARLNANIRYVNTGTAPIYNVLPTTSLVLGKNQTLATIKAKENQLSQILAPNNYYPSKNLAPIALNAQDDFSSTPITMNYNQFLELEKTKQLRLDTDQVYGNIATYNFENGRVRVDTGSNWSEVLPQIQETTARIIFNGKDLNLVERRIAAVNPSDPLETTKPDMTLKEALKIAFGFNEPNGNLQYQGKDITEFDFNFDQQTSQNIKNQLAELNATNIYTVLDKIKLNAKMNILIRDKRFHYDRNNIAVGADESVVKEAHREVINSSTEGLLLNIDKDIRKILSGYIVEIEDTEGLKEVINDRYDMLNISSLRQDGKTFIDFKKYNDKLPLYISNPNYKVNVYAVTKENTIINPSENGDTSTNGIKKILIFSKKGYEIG
NlpA-[Dig scFv] (26-10 anti-digoxin/digoxigenin scFv) fusion anchored on the E. coli inner membrane, sequence (P04846 whole entry, looked up, the tested form may be a part): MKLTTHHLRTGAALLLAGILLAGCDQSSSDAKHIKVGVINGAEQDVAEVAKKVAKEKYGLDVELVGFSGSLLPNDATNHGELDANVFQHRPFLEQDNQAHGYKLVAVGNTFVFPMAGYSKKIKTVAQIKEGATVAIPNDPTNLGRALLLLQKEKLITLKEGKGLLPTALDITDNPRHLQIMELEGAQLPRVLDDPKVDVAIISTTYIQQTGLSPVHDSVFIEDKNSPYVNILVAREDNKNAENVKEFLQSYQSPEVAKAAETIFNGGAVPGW
26-10 anti-digoxin/digoxigenin scFv-g3p fusion (pAK200), sequence (P69168 268-424): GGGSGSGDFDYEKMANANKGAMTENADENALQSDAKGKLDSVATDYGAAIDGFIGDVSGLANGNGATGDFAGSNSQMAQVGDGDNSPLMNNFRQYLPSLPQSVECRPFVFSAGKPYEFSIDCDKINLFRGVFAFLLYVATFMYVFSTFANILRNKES

| Substance | mean fluorescence (M) [1] | mean fluorescence (M) [2] |
| --- | --- | --- |
| NlpA-[Dig scFv] (26-10 anti-digoxin/digoxigenin scFv) fusion anchored on the E. coli inner membrane (from UniProt P04846 24-29) | 2.97 | 4.48 |
| 26-10 anti-digoxin/digoxigenin scFv-g3p fusion (pAK200) (from UniProt P69168 268-424) | – | 7.25 |

From US20050106647A1
